From US20200225234A1 (ONCOTAG DIAGNOSTICS, published 2020)

Columns and labels:
His-CRS = biological target: T1, His-CRS (UniProt P49589 1-748); test: ELISA, coated His-CRS, absorbance at 450 nm
T1 construct: not shown: His tag
T1 sequence (looked up): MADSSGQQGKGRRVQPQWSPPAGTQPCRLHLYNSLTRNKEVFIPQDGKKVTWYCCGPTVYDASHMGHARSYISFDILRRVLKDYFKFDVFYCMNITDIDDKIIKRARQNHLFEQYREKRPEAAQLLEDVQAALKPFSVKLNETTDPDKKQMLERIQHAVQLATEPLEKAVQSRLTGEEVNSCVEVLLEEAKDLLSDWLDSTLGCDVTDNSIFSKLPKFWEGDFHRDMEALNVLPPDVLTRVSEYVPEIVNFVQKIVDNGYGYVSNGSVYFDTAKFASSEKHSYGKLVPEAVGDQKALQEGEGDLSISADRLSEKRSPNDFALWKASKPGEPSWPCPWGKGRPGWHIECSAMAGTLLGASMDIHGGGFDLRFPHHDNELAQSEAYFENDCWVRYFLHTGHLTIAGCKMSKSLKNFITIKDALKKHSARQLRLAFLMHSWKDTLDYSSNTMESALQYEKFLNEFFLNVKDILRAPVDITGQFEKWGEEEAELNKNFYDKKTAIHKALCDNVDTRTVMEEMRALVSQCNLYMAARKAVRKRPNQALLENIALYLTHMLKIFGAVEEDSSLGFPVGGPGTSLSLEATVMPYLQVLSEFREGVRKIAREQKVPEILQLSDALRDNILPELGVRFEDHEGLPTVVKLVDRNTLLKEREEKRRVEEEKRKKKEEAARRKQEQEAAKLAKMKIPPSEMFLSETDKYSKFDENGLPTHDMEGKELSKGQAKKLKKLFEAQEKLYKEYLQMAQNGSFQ
Experimental: (§1) On a 96-well plate (Corning 3690 flat bottom, 96-well half-area plates), MRS proteins (His-MRS, MRS full) and other ARS proteins (DX2 tag free, 34S-DX2, 34S-AIMP2, His-CRS, His-AIMP1, His-GRS, His-WRS, His-KRS) were each coated at a concentration of 1 μg/ml. 8A12 antibody was added at a concentration of 500 ng/ml to the 96-well plate coated with coated with each of the ARS proteins, followed by incubation for 1 hour. Thereafter, HRP-conjugated anti-mouse IgG secondary antibody was added, followed by incubation for 1 hour, and the absorbance at 450 nm was measured by ELISA. As a substrate, 3,3′,5,5′-tetramethylbenzidine (TMB) was used.

His-GRS = biological target: T2, His-GRS (UniProt P41250 55-739); test: ELISA, coated His-GRS, absorbance at 450 nm
T2 construct: not shown: His tag
T2 sequence (looked up): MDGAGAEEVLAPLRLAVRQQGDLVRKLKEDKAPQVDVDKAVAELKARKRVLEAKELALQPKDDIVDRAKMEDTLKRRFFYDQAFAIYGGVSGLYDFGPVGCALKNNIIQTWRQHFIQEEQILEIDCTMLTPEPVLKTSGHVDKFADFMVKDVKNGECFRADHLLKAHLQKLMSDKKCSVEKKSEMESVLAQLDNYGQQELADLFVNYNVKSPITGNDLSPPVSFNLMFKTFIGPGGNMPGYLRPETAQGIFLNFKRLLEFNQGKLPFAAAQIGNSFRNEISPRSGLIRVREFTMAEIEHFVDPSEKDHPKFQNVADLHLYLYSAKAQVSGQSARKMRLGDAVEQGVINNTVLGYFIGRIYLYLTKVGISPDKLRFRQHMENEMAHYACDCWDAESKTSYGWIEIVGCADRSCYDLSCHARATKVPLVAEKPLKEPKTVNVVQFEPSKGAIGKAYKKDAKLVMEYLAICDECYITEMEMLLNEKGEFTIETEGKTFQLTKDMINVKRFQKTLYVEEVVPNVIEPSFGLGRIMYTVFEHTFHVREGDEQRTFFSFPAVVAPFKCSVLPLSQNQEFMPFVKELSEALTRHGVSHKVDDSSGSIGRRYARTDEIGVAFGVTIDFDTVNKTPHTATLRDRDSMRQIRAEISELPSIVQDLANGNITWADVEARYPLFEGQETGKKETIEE
Experimental: as §1

His-KRS = biological target: T3, His-KRS (UniProt Q15046 1-597); test: ELISA, coated His-KRS, absorbance at 450 nm
T3 construct: not shown: His tag
T3 sequence (Q15046 whole entry): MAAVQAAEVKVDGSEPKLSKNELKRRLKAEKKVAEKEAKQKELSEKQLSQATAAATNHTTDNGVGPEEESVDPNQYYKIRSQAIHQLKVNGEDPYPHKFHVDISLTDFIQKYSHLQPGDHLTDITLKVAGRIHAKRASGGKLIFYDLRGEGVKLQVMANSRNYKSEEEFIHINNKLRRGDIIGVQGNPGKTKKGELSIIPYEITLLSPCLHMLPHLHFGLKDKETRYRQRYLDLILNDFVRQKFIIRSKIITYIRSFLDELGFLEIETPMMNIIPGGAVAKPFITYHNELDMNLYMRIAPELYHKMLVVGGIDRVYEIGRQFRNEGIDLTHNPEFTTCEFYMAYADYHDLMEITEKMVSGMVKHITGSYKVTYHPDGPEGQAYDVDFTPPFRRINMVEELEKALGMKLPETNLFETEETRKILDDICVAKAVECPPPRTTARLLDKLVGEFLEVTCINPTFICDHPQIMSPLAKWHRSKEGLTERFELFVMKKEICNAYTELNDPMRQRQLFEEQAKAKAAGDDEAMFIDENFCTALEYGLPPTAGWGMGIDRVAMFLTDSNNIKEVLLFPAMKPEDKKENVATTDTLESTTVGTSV
Experimental: as §1

His-WRS = biological target: T4, His-WRS (UniProt P23381 1-471, limits assumed); test: ELISA, coated His-WRS, absorbance at 450 nm
T4 construct: not shown: His tag
T4 sequence (looked up): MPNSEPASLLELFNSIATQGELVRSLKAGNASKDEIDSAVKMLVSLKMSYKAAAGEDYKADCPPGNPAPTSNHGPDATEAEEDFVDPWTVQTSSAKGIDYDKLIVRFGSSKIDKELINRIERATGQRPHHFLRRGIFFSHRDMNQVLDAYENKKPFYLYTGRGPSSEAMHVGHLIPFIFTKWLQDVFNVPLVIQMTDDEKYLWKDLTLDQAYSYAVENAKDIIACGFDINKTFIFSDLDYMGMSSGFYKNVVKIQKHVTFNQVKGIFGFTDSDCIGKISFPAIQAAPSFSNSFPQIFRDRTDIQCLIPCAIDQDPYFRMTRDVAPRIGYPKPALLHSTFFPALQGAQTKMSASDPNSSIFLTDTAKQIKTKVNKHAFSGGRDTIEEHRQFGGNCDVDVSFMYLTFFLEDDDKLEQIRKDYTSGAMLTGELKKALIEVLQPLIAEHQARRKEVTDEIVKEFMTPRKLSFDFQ
Experimental: as §1

[1] = biological target: T5, MRS fragment peptide of aa 851-880 (human); test: ELISA, peptide coated at 300 ng/well, antibody at 10 nM
T5 peptide: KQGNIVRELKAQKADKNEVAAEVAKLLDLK
Experimental: The 8A12 antibody as a primary antibody was diluted to 10 nM (1× PBST-Tween 0.05%), and HRP-conjugated Goat anti-mouse IgG (Thermo) as a secondary antibody was diluted at 1:10000 (1×PBST-Tween0.05%), and the absorbance was measured at 450 nm.

34S-AIMP2 = biological target: T6, 34S-AIMP2 (UniProt Q13155 1-320); test: ELISA, coated 34S-AIMP2, absorbance at 450 nm
T6 construct: The meaning of 34S is unknown
T6 sequence (looked up): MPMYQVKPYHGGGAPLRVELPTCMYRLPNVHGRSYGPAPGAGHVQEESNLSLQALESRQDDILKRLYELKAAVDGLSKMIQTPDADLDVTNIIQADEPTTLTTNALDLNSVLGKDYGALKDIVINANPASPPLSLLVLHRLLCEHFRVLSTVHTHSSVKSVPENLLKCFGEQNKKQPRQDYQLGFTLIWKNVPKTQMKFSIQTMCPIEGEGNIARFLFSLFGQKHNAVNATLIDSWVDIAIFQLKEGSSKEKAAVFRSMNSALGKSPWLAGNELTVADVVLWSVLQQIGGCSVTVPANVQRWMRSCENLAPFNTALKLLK
Experimental: as §1

His-AIMP1 = biological target: T7, His-AIMP1 (UniProt Q12904 1-312, limits assumed); test: ELISA, coated His-AIMP1, absorbance at 450 nm
T7 construct: not shown: His tag
T7 sequence (looked up): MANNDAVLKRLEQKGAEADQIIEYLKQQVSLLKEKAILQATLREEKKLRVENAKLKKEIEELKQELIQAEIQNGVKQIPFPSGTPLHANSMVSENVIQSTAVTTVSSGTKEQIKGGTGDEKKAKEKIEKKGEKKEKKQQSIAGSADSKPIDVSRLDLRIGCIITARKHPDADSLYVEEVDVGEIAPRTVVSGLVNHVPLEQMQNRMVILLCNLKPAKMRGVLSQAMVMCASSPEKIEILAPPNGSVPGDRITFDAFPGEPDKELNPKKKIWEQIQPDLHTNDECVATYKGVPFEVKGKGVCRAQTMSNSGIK
Experimental: as §1

[2] = biological target: T8, aminoacyl-tRNA synthetase complex-interacting multifunctional protein 3 (AIMP3) (Homo sapiens (Human), UniProt O43324 1-174, limits assumed); test: SPR, AIMP3 protein on a CM5 chip, 8A12 antibody as analyte at 0.20 to 200 nM
T8 construct: The construct of the AIMP3-alone protein is not described; also called AIMP3 protein
T8 sequence: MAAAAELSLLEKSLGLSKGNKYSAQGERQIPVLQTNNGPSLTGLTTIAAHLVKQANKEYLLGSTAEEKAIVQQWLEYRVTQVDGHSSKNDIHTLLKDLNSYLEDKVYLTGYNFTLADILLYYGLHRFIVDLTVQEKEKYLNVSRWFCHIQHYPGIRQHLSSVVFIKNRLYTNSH
Experimental: (§2) To investigate MRS-specific affinity of the 8A12 antibody, a surface plasmon resonance (SPR) test was performed using MRS-AIMP3 co-purified protein (hereinafter, MRS+AIMP3 protein) and AIMP3 protein. MRS+AIMP3 or AIMP3 protein was coated on a CM5 chip and the 8A12 antibody was allowed to flow down, thereby measuring the degree of binding response of the protein. An analyte sample or buffer was injected at a flow rate of 30 μl/min for 8 minutes, and washed for 20 minutes.

[3] = biological target: T9, MRS-AIMP3 co-purified protein (human, UniProt P56192 1-900; O43324 1-174, limits assumed); test: SPR, MRS+AIMP3 protein on a CM5 chip, 8A12 antibody as analyte at 0.39 to 200 nM
T9 construct: Complex of MRS and AIMP3, co-expressed in E. coli BL21DE3 and co-purified; also called MRS+AIMP3 protein
T9 sequence 1: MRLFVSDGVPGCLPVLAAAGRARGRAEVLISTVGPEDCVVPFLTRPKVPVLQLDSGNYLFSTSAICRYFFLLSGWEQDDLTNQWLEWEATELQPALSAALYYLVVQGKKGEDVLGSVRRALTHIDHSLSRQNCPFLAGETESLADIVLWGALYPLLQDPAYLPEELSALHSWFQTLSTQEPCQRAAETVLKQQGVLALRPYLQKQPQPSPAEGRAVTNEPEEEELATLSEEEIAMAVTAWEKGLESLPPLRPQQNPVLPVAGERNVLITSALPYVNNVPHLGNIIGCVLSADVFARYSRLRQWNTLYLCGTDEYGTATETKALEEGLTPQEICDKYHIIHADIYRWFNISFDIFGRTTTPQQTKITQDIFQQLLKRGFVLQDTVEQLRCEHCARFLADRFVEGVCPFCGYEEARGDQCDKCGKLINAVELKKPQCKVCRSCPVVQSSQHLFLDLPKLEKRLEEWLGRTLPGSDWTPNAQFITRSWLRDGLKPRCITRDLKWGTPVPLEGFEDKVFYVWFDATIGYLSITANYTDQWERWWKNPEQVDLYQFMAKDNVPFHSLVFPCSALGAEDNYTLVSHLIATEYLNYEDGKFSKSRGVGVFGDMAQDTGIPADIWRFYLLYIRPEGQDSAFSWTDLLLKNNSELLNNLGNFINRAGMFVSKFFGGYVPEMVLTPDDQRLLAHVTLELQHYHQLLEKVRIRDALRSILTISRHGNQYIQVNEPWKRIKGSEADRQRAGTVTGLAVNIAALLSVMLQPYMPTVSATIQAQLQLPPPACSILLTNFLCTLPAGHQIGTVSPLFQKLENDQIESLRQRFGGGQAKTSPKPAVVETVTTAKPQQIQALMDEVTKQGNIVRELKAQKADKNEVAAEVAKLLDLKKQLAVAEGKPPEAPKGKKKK
T9 sequence 2: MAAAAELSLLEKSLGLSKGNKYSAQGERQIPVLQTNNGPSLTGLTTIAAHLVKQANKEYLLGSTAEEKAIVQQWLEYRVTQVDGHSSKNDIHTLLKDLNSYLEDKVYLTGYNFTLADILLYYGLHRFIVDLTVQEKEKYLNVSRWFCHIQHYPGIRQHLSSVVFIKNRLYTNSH
Experimental: as §2

[4] = biological target: T9, MRS-AIMP3 co-purified protein; test: SPR, MRS+AIMP3 protein coated on CM5 chip, antibody as analyte; MRS+AIMP3 co-purified protein on the CM5 chip, 8A12 antibody as analyte
Experimental: as §2

B1: 8A12 antibody (whole 8A12 IgG antibody) (antibody, V domains shown)
VH: DVKLQESGPGLVKPSQSLSLTCTVTGYSITSEYAWTWIRQFPGNKLEWMGYINYNGNTNLNPSLKSRISIIRDTSKNQFFLQLNSVTTEDTATYYCARSLWPRGWFAYWGQGTLVTVSA
VL: DIQMTQSPSSMYASLGERVTITCKASQDINSYLSWFQQKPGKSPKTLMYRANRLVDGVPSRFSGSGSGQDYSLTISSLEYEDMGIYYCLQYDEFPRTFGGGTKLEIKA
notes: Mouse monoclonal antibody from hybridoma 8A12; It was also made recombinantly in 293F cells with mouse IgG2a heavy and mouse kappa light chain vectors; also called MRS antibody; 8A12 clone expression antibody
- binding result (His-CRS): no binding
- binding result (His-GRS): no binding
- binding result (His-KRS): no binding
- binding result (His-WRS): no binding
- binding result [1]: binds
- binding result (34S-AIMP2): no binding
- binding result (His-AIMP1): no binding
- binding result [2]: no binding (tested: 200 nM)
- koff [3]: 0.000213 s⁻¹
- kon [3]: 137000 M⁻¹ s⁻¹
- Kd [4]: 1.56 nM
